Publication PMC11633110
Positions count from the first letter of the chain named.

How the values were obtained:
Test in all cases: EMSA
Settings in all cases: 10 mM Tris-HCl pH 8, 50 mM KCl, 0.5 mM EDTA, 10% glycerol, 0.5 mM DTT, 10 nM DNA, 25°C 25 min; 8% PAGE in 0.5x TBE
[1] = target: T1, SydR' C16S&C114S (SS) C16S;C114S (Sinorhizobium meliloti Rm2011) (UniProt Q92XY2)
T1 sequence: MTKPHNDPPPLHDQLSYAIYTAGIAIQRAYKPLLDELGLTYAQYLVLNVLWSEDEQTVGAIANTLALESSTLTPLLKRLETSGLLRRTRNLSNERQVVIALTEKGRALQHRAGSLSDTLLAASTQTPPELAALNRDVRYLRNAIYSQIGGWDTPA

[2] = target: T2, SydR' C16S (SC) C16S (Sinorhizobium meliloti Rm2011) (UniProt Q92XY2)
T2 sequence: T1 sequence with S114C

[3] = target: T3, SydR' C114S (CS) C114S (Sinorhizobium meliloti Rm2011) (UniProt Q92XY2)
T3 sequence: T1 sequence with S16C

“TCTGGGCTCCTTTGCGCACCAATATAATCAAGATTACCGCGAAAACCAATATCGCGATAAGAGATATGTTGACGAGCAGTTCAATATCTGACAACTTAAATATATCGCGATAACAGTTATCGCTATCAACGAAAGGAAAAAGCC (double strand) [sydR-SMa2023 intergenic region, 144 bp]” was tested, and the binding [1] was “binds more weakly”, the binding [2] was “binds more weakly” and the binding [3] was “binds”.
